In patent US20140378663A1:

What was measured:
Fcγ receptors = assay: cell-based or functional assay
[1] = target: RhD antigen on RhD+ red blood cells (UniProt Q02161); assay: flow cytometry on RhD+ red blood cells
[2] = target: Recombinant soluble human FcRn (human) (UniProt P55899); assay: SPR, FcRn immobilised, pH 6.0; reference R593
[3] = target: FcRn-p3 (fusion protein of β2 microglobulin chain and FcRn α-chain fused to bacteriophage protein p3 and CVDE protein) (UniProt P61769); assay: ELISA, purified IgG from YB2/0, vs R593 IgG-WT
[4] = target: FcγRIIaR131 (R&D system) (human) (UniProt P12318); assay: ELISA, purified IgG from YB2/0, vs R593 IgG-WT
[5] = target: FcγRIIb (R&D system) (human) (UniProt P31994); assay: ELISA, purified IgG from YB2/0, vs R593 IgG-WT
[6] = target: FcγRI (R&D system) (human) (UniProt P12314); assay: ELISA, purified IgG from YB2/0, vs R593 IgG-WT
[7] = target: FcγRIIIaF158 (PX Therapeutics, His-tagged) (human) (UniProt P08637); assay: ELISA, purified IgG from YB2/0, vs R593 IgG-WT
[8] = target: FcγRIIaH131 (PX Therapeutics, His-tagged) (human) (UniProt P12318); assay: ELISA, purified IgG from YB2/0, vs R593 IgG-WT
[9] = target: FcγRIIIaV158 (R&D system) (human) (UniProt P08637); assay: ELISA, purified IgG from YB2/0, vs R593 IgG-WT
[10] = target: Recombinant soluble human FcRn (human) (UniProt P55899); assay: SPR (BIAcore X100), FcRn immobilised, pH 6.0
[11] = target: FcRn-p3 (fusion protein of β2 microglobulin chain and FcRn α-chain fused to bacteriophage protein p3 and CVDE protein) (UniProt P61769); assay: ELISA, 293-F supernatant, vs R603 IgG-WT
[12] = target: FcγRIIaR131 (R&D system) (human) (UniProt P12318); assay: ELISA, 293-F supernatant, vs R603 IgG-WT
[13] = target: FcγRIIb (R&D system) (human) (UniProt P31994); assay: ELISA, 293-F supernatant, vs R603 IgG-WT
[14] = target: FcγRI (R&D system) (human) (UniProt P12314); assay: ELISA, 293-F supernatant, vs R603 IgG-WT
[15] = target: C1q complement (Calbiochem) (UniProt P02745); assay: ELISA, 293-F supernatant, vs R603 IgG-WT
[16] = target: FcRn-p3 (fusion protein of β2 microglobulin chain and FcRn α-chain fused to bacteriophage protein p3 and CVDE protein) (UniProt P61769); assay: ELISA, purified IgG from YB2/0, vs parent R603-256N/378V/383N/434Y
[17] = target: FcγRIIaR131 (R&D system) (human) (UniProt P12318); assay: as above
[18] = target: FcγRIIb (R&D system) (human) (UniProt P31994); assay: as above
[19] = target: FcγRI (R&D system) (human) (UniProt P12314); assay: as above
[20] = target: FcγRIIaH131 (PX Therapeutics, His-tagged) (human) (UniProt P12318); assay: as above
[21] = target: FcRn-p3 (fusion protein of β2 microglobulin chain and FcRn α-chain fused to bacteriophage protein p3 and CVDE protein) (UniProt P61769); assay: ELISA, 293-F supernatant, vs parent 256N/378V/383N/434Y
[22] = target: FcγRIIaR131 (R&D system) (human) (UniProt P12318); assay: as above
[23] = target: FcγRIIb (R&D system) (human) (UniProt P31994); assay: as above
[24] = target: FcγRI (R&D system) (human) (UniProt P12314); assay: as above
[25] = target: C1q complement (Calbiochem) (UniProt P02745); assay: as above
[26] = target: FcRn-p3 (fusion protein of β2 microglobulin chain and FcRn α-chain fused to bacteriophage protein p3 and CVDE protein) (UniProt P61769); assay: ELISA, purified IgG from YB2/0, vs R603 IgG-WT
[27] = target: FcγRIIaR131 (R&D system) (human) (UniProt P12318); assay: ELISA, purified IgG from YB2/0, vs R603 IgG-WT
[28] = target: FcγRIIb (R&D system) (human) (UniProt P31994); assay: ELISA, purified IgG from YB2/0, vs R603 IgG-WT
[29] = target: FcγRI (R&D system) (human) (UniProt P12314); assay: ELISA, purified IgG from YB2/0, vs R603 IgG-WT
[30] = target: FcγRIIIaF158 (PX Therapeutics, His-tagged) (human) (UniProt P08637); assay: ELISA, purified IgG from YB2/0, vs R603 IgG-WT
[31] = target: FcγRIIaH131 (PX Therapeutics, His-tagged) (human) (UniProt P12318); assay: ELISA, purified IgG from YB2/0, vs R603 IgG-WT
[32] = target: FcγRIIIaV158 (R&D system) (human) (UniProt P08637); assay: ELISA, purified IgG from YB2/0, vs R603 IgG-WT
[33] = target: FcγRIIIaV158 (R&D system) (human) (UniProt P08637); assay: ELISA, 293-F supernatant, vs R603 IgG-WT
[34] = target: C1q complement (Calbiochem) (UniProt P02745); assay: cell-based or functional assay
[35] = target: T1, CD20 antigen on Raji lymphoblastoid B cells (UniProt P11836); assay: flow cytometry on Raji cells
T1 sequence (looked up): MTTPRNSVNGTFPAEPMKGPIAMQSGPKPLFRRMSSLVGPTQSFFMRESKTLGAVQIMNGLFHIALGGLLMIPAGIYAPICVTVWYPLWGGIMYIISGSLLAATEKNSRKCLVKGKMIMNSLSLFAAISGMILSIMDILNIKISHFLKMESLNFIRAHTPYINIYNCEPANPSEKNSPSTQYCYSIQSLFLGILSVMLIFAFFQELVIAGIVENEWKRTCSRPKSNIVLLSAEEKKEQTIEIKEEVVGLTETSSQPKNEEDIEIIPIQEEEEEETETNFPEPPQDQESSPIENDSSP

[36] = target: Recombinant soluble human FcRn (human) (UniProt P55899); assay: SPR, FcRn immobilised, pH 6.0; reference R603

Chain of FcγRI (R&D system) (human) (P12314 16-288 limits assumed): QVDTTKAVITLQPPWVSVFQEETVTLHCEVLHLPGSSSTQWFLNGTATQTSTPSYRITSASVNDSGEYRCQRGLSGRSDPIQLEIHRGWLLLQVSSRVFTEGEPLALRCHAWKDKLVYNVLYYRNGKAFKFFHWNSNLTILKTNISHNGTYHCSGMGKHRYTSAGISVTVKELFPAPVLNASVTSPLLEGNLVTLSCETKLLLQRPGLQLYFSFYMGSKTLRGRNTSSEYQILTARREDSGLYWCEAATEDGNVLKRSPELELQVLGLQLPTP
Chain of FcγRIIb (R&D system) (human) (P31994 46-217 limits assumed): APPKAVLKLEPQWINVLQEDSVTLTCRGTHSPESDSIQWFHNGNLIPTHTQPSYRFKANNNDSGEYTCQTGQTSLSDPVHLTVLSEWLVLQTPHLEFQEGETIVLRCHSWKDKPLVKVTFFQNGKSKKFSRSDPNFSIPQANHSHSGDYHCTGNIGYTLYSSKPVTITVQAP
Chain of FcγRIIIaV158 (R&D system) (human) (P08637 17-208 F176V limits assumed): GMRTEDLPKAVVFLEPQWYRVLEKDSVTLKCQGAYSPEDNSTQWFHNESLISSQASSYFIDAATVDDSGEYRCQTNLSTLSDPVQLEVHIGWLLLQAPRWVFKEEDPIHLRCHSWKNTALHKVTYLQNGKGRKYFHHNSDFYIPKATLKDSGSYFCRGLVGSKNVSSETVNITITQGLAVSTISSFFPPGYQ
Chain of RhD antigen on RhD+ red blood cells (Q02161 2-417 limits assumed): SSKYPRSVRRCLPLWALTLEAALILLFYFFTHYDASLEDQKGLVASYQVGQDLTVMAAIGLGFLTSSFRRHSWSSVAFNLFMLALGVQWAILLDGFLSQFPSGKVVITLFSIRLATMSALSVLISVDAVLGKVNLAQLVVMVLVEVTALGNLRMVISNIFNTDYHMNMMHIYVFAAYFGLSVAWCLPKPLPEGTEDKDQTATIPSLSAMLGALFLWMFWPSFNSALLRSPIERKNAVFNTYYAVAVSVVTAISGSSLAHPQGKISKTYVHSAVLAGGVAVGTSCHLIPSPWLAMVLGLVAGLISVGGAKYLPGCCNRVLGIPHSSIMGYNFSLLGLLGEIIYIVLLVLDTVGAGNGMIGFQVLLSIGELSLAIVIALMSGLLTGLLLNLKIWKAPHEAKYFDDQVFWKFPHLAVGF
Chain of C1q complement (Calbiochem) (P02745 23-245, chain 1 of 3): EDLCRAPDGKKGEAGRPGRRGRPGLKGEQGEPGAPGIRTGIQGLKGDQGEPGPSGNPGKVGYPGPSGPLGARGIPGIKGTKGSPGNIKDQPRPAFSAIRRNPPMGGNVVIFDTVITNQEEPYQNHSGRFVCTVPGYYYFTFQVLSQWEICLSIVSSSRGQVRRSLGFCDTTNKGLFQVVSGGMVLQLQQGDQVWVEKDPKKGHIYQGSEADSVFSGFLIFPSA
Chain of C1q complement (Calbiochem) (P02746 28-253, chain 2 of 3, further chain): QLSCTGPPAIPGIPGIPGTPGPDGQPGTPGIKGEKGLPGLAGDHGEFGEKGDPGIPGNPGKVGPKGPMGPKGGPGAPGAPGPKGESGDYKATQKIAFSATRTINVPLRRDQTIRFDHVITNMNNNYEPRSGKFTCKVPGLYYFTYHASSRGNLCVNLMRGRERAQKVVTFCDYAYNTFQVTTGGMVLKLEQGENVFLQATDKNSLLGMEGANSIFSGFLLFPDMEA
Chain of C1q complement (Calbiochem) (P02747 29-245, chain 3 of 3, further chain): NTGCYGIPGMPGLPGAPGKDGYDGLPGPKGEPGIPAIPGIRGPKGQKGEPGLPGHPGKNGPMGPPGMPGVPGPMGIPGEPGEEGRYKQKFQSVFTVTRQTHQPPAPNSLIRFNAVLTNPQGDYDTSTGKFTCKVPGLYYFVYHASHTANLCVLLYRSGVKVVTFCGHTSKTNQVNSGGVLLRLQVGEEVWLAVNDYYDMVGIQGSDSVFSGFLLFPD
Chain of FcRn-p3 (fusion protein of β2 microglobulin chain and FcRn α-chain fused to bacteriophage protein p3 and CVDE protein) (P61769 21-119, chain 1 of 2): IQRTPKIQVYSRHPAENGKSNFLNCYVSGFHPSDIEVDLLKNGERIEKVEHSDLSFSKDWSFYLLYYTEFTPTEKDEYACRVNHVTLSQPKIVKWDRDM
Chain of FcRn-p3 (fusion protein of β2 microglobulin chain and FcRn α-chain fused to bacteriophage protein p3 and CVDE protein) (P55899 24-290, chain 2 of 2, further chain): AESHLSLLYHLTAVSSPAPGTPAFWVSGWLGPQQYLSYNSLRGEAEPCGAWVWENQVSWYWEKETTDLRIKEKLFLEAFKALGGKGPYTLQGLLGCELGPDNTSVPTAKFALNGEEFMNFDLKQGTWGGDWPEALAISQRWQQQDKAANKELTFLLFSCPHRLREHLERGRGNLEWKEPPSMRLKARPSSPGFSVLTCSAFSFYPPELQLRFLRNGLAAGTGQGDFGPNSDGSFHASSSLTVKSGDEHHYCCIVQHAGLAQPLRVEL
Chain of Recombinant soluble human FcRn (human) (P55899 24-290 limits assumed, chain 1 of 2): as the sequence (P55899 24-290, chain 2 of 2, further chain) above
Chain of Recombinant soluble human FcRn (human) (P61769 21-119 limits assumed, chain 2 of 2, further chain): as the sequence (P61769 21-119, chain 1 of 2) above
Chain of FcγRIIIaF158 (PX Therapeutics, His-tagged) (human) (P08637 17-208 limits assumed): as the sequence (P08637 17-208 F176V limits assumed) above, with V160F counted along it
Chain of FcγRIIaR131 (R&D system) (human) (P12318 36-218 H167R limits assumed): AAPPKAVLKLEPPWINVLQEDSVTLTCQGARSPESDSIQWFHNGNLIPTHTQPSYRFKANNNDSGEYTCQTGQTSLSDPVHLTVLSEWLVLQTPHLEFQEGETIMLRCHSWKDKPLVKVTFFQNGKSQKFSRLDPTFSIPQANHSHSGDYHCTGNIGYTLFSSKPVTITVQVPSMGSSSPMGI
Chain of FcγRIIaH131 (PX Therapeutics, His-tagged) (human) (P12318 34-217 limits assumed): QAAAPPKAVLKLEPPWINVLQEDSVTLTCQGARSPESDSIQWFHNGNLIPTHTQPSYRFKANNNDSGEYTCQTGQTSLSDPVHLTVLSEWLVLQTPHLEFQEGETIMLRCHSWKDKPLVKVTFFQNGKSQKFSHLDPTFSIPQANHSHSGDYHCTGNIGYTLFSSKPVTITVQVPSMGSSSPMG

Substance: R593 anti-RhD+ IgG1 variant 256N/378V/383N/434Y (antibody)
- ADCC EC50 (ng/ml), lysis of RhD+ red cells (Fcγ receptors): 11.1 ng/mL
- ADCC Max. Lysis (%) (Fcγ receptors): 93%
- Ag binding MFI (Arbitrary Unit) [1]: 49.6
- Ratio WT/IgG (KD) [2]: 4.52
- Ratio/IgG-WT [3]: 7.49
- Ratio/IgG-WT [4]: 1.08
- Ratio/IgG-WT [5]: 1.55
- Ratio/IgG-WT [6]: 2.19
- Ratio/IgG-WT [7]: 0.92
- Ratio/IgG-WT [8]: 1.01
- Ratio/IgG-WT [9]: 0.98
- Kd [10]: 42 nM

Substance: R593 anti-RhD+ IgG1 variant 259I/315D/434Y (antibody)
- ADCC EC50 (ng/ml), lysis of RhD+ red cells (Fcγ receptors): 14.2 ng/mL
- ADCC Max. Lysis (%) (Fcγ receptors): 89%
- Ag binding MFI (Arbitrary Unit) [1]: 47.2
- Ratio WT/IgG (KD) [2]: 9.31
- Ratio/IgG-WT [3]: 7.93
- Ratio/IgG-WT [4]: 1.05
- Ratio/IgG-WT [5]: 1.41
- Ratio/IgG-WT [6]: 1.08
- Ratio/IgG-WT [7]: 0.94
- Ratio/IgG-WT [8]: 0.94
- Ratio/IgG-WT [9]: 0.95
- Kd [10]: 20.4 nM

Substance: R593 anti-RhD+ IgG1 variant 294Del (antibody)
- ADCC EC50 (ng/ml), lysis of RhD+ red cells (Fcγ receptors): 75.9 ng/mL
- ADCC Max. Lysis (%) (Fcγ receptors): 5%
- Ag binding MFI (Arbitrary Unit) [1]: 52.6
- Kd [10]: 204 nM

Substance: R603 anti-CD20 IgG1 variant 230S/294Del/315D/428L/434Y (antibody)
- Ratio/IgG-WT [11]: 3.86
- Ratio/IgG-WT [12]: 0.01
- Ratio/IgG-WT [13]: 0.02
- Ratio/IgG-WT [14]: 0.25
- Ratio/IgG-WT [15]: 0.35

Substance: R603 anti-CD20 IgG1 variant 256N/294Del/378V/383N/434Y (antibody)
- ratio to the IgG1 without 294Del [16]: 1.04
- ratio to the IgG1 without 294Del [17]: 0.06
- ratio to the IgG1 without 294Del [18]: 0.25
- ratio to the IgG1 without 294Del [19]: 0.07
- ratio to the IgG1 without 294Del [20]: 0.09
- ratio to the IgG1 without 294Del [21]: 0.75
- ratio to the IgG1 without 294Del [22]: 0.004
- ratio to the IgG1 without 294Del [23]: 0.002
- ratio to the IgG1 without 294Del [24]: 0.66
- ratio to the IgG1 without 294Del [25]: 0.04

Substance: R603 anti-CD20 IgG1 variant 256N/378V/383N/434Y (antibody)
- Ratio/IgG-WT [26]: 8.51
- Ratio/IgG-WT [27]: 1.4
- Ratio/IgG-WT [28]: 1.83
- Ratio/IgG-WT [29]: 2.19
- Ratio/IgG-WT [30]: 1.25
- Ratio/IgG-WT [31]: 0.93
- Ratio/IgG-WT [32]: 1.22
- Ratio/IgG-WT [11]: 4.63
- Ratio/IgG-WT [12]: 2.59
- Ratio/IgG-WT [13]: 4.77
- Ratio/IgG-WT [14]: 0.93
- Ratio/IgG-WT [33]: 2.09
- Ratio/IgG-WT [15]: 3.65

Substance: R603 anti-CD20 IgG1 variant 259I/315D/434Y (antibody)
- CDC EC50 [34]: 0.41 µg/mL
- Ag binding MFI (Arbitrary Unit) [35]: 137
- Ratio WT/IgG (KD) [36]: 3.68
- Ratio/IgG-WT [26]: 6.93
- Ratio/IgG-WT [27]: 1.11
- Ratio/IgG-WT [28]: 1.54
- Ratio/IgG-WT [29]: 1.12
- Ratio/IgG-WT [30]: 1.11
- Ratio/IgG-WT [31]: 0.99
- Ratio/IgG-WT [32]: 1.11
- Ratio/IgG-WT [11]: 4.32
- Ratio/IgG-WT [12]: 1.23
- Ratio/IgG-WT [13]: 1.07
- Ratio/IgG-WT [14]: 0.82
- Ratio/IgG-WT [33]: 1.08
- Ratio/IgG-WT [15]: 1.26
- Kd [10]: 26.9 nM

Substance: R603 anti-CD20 IgG1 variant 294Del (antibody)
- Ag binding MFI (Arbitrary Unit) [35]: 126
- Kd [10]: 190 nM

Substance: R603 anti-CD20 IgG1 variant 294Del/302A (antibody)
- Ratio/IgG-WT [11]: 0.66
- Ratio/IgG-WT [12]: 0.02
- Ratio/IgG-WT [13]: 0.06
- Ratio/IgG-WT [14]: 0.06
- Ratio/IgG-WT [15]: 0.21

Substance: R603 anti-CD20 IgG1 variant 294Del/307A (antibody)
- Ratio/IgG-WT [11]: 1.94
- Ratio/IgG-WT [12]: 0.01
- Ratio/IgG-WT [13]: 0.2
- Ratio/IgG-WT [14]: 0.35
- Ratio/IgG-WT [15]: 0.46

Substance: R603 anti-CD20 IgG1 variant 294Del/315D (antibody)
- Ratio/IgG-WT [11]: 1.16
- Ratio/IgG-WT [13]: 0.21
- Ratio/IgG-WT [14]: 0.4
- Ratio/IgG-WT [15]: 0.29

Substance: R603 anti-CD20 IgG1 variant 294Del/378V (antibody)
- Ratio/IgG-WT [11]: 1.46
- Ratio/IgG-WT [12]: 0.06
- Ratio/IgG-WT [13]: 0.11
- Ratio/IgG-WT [14]: 0.33

Substance: R603 anti-CD20 IgG1 variant 294Del/397M (antibody)
- Ratio/IgG-WT [11]: 0.84
- Ratio/IgG-WT [12]: 0.03
- Ratio/IgG-WT [13]: 0.04
- Ratio/IgG-WT [14]: 0.68
- Ratio/IgG-WT [15]: 0.25

Substance: R603 anti-CD20 IgG1 variant 294Del/434S (antibody)
- Ratio/IgG-WT [11]: 2.64
- Ratio/IgG-WT [12]: 0.02
- Ratio/IgG-WT [13]: 0.05
- Ratio/IgG-WT [14]: 0.49
- Ratio/IgG-WT [15]: 0.25
